Among the data in patent CN111393529A (KANGYUAN BOCHUANG BIO TECH BEIJING CO LTD, dated 2020) are Kd values, retold here.

A word on the Kd: it is the constant that tells how readily two partners part at equilibrium. Read a high Kd as a looser complex.

The assay concerns the target T1, OX40蛋白胞外区与小鼠IgG2a-FC的融合蛋白 (human; mouse, UniProt P43489 29-214).
T1 construct: also called 抗原OX40小鼠IgG2a Fc标签蛋白; 实施例1中的融合蛋白; not shown: Mouse IgG2a Fc, from Genbank AAH31470.1
T1 sequence: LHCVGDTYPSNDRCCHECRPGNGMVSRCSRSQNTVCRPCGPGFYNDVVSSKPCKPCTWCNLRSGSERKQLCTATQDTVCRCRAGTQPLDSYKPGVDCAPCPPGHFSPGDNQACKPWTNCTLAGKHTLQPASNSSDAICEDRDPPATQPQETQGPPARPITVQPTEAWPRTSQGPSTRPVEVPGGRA
Kind of assay: SPR, Biacore T200, antibody captured on CM5 chip, OX40-mouse IgG2a Fc as analyte. (SPR reads the build-up and loss of mass on a sensor chip optically.)

B1: 抗体H1K1 (antibody, V domains shown)
VH: EVQLQQPGSVLVRPGTSVKLSCKASGYTFTSSWIHWARQRPGQGLEWIGDIHPNSGNTNYNEKFKGKATLTVDTSSSTAYVDLSSLTSEDSAVYYCVRSYGNYKDYYGMDYWGQGTSVTVSS
VL: DILMTQSPASLAVSLGQRATISCKASQSVDYDGDSYMNWYQQKPGQPPKLLIYAASNLESGIPARFSGSGSGTDFTLNIHPVEEEDAATYYCQQSNEDPYTFGGGTKLEIKR
The molecule B1 yielded a Kd of 11 nM.

B2: 抗体I3E3 (antibody, V domains shown)
VH: EVKLVESGGGLVQPGGSLRLSCATSGFTFSDFYMGWVRQPPGKRLEWIAASRNKAYDYTTAYSASVKGRFIVSRDTSQSILYLQMNALRAEDTAIYYCARDDGYYPMDYWGQGTSVTVSS
VL: DIQLTQSPASLAVSLGQRATISCRASKSVSTSGYSYMHWYQQKPGQPPKLLIYLASNLESGVPARFSGSGSGTDFTLNIHPVEEEDAATYYCQHSRELPLTFGAGTKLELKR
As to B2, the Kd amounted to 4.4 nM.

B3: 抗体H1E6 (antibody, V domains shown)
VH: EVKLVESGAELVKPGTSVRLSCKASGYTFTSYDINWVRQRPEQGLEWIGWIFPGDGSTKYNEKFKGKATLTTDKSSSTVYMQLSRLTSEDSAVYFCARWDGYYEGDYFDNWGQGTTLTVSS
VL: DIVMTQSPSSLSASLGGKVTITCKASQDINKYIAWYQHKPGKGPRLLIHYTSTLQPGIPSRFSGSGSGRDYSFNISNLEPEDIATYYCLQYVNLYTFGGGTKLEIKR
Consider B3, for which the Kd was determined as 5.1 nM.
